Test results: publication PMC6765133 (Nucleic Acids Research, 2019)

B1: Deinococcus geothermalis DdrO (residues 12-140) (natural protein)
chain: MGSSHHHHHHSSGLVPRGSHMKLHERLRELRSERGLRLKDVAETAGISVPYLSDLERGRTNPSLETLQTLAGAYSITVHDLLEGVEFYGDSTEGALPKGLADLVADPLLGSQITPDWVRTLSRIELRGKRPRDKQDWYEIYLHLKRILG
B2: DG-DdrO Y129A (natural protein)
chain: MGSSHHHHHHSSGLVPRGSHMKLHERLRELRSERGLRLKDVAETAGISVPYLSDLERGRTNPSLETLQTLAGAYSITVHDLLEGVEFYGDSTEGALPKGLADLVADPLLGSQITPDWVRTLSRIELRGKRPRDKQDWAEIYLHLKRILG
B3: DG-DdrO Y132A (natural protein)
chain: MGSSHHHHHHSSGLVPRGSHMKLHERLRELRSERGLRLKDVAETAGISVPYLSDLERGRTNPSLETLQTLAGAYSITVHDLLEGVEFYGDSTEGALPKGLADLVADPLLGSQITPDWVRTLSRIELRGKRPRDKQDWYEIALHLKRILG
B4: DG-DdrO R22A (natural protein)
chain: MGSSHHHHHHSSGLVPRGSHMKLHERLRELASERGLRLKDVAETAGISVPYLSDLERGRTNPSLETLQTLAGAYSITVHDLLEGVEFYGDSTEGALPKGLADLVADPLLGSQITPDWVRTLSRIELRGKRPRDKQDWYEIYLHLKRILG

Biological target: the molecule itself
Assay: SEC

| Protein | stoichiometry N |
| --- | --- |
| B1 | 2 |
| B2 | 2 |
| B3 | 2 |
| B4 | 2 |
